# Experimental data from article PMC10991105.
# Substrate: CCCCCCCCCCCCCCCC(=O)Oc1ccc([N+](=O)[O-])cc1
# Assay: p-NPP hydrolysis, Lineweaver-Burk
# Assay type: biochemical, Thermomyces lanuginosus
# Settings: free enzyme; p-NPP 0.05-0.5 mg/mL
# From the text: p-NPP hydrolysis, Lineweaver-Burk on Thermomyces lanuginosus lipase (TLLs)
protein,measurement,value
"Thermomyces lanuginosus lipase (TLLs) (Thermomyces lanuginosus) (protein, commercial free lipase from Novozymes) EVSQDLFNQFNLFAQYSAAAYCGKNNDAPAGTNITCTGNACPEVEKADATFLYSFEDSGVGDVTGFLALDNTNKLIVLSFRGSRSIENWIGNLNFDLKEINDICSGCRGHDGFTSSWRSVADTLRQKVEDAVREHPDYRVVFTGHSLGGALATVAGADLRGNGYDIDVFSYGAPRVGNRAFAEFLTVQTGGTLYRITHTNDIVPRLPPREFGYSHSSPEYWIKSGTLVPVTRNDIVKIEGIDATGGNNQPNIPDIPAHLWYFGLIGTCL",Km,1396 µM
same,kcat,22800 s⁻¹
